Patent US20030068675, “Position dependent recognition of GNN nucleotide triplets by zinc fingers” (published 2003)

Columns and labels:
Test in all cases: EMSA
Settings in all cases: tags: MBP fusion
ZFP SBS#1494 = target: T1, ZFP SBS#1494 (synthetic)
T1 chain: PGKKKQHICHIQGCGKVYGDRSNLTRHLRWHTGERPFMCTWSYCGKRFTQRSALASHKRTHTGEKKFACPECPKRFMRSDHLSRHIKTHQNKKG
In short: (§1)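 Purified ZFP was titrated against labeled double-stranded target (1 nM or lower, at least 10-fold below expected Kd) carrying the natural binding site with flanks. Binding buffer was 10 mM Tris pH 7.5, 100 mM KCl, 1 mM MgCl2, 0.1 mM ZnCl2, 5 mM DTT, 10% glycerol, 0.02% BSA, with equilibration for at least 45 min. Bound and free target were separated on a 10% polyacrylamide gel.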

ZFP SBS#1486 = target: T2, ZFP SBS#1486 (synthetic)
T2 chain: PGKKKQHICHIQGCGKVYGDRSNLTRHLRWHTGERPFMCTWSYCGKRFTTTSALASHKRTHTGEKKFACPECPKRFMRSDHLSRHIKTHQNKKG
In short: as §1

ZFP SBS#1522 = ZFP SBS#1522 (synthetic)
Chain of ZFP SBS#1522 (synthetic) (chain, as listed by the source): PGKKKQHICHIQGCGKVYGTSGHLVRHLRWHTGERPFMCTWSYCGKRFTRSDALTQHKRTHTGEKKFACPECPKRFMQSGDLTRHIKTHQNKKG
In short: as §1

ZFP SBS#1492 = target: T3, ZFP SBS#1492 (synthetic)
T3 chain: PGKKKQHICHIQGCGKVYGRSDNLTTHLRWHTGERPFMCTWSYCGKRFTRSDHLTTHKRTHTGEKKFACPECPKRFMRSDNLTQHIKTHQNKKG
In short: as §1

ZFP SBS#1493 = ZFP SBS#1493 (synthetic)
In short: as §1

ZFP SBS#1488 = ZFP SBS#1488 (synthetic)
Chain of ZFP SBS#1488 (synthetic) (chain, as listed by the source): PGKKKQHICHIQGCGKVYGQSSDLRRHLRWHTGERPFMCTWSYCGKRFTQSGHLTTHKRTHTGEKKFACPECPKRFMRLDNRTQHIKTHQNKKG
In short: as §1

ZFP SBS#1497 = ZFP SBS#1497 (synthetic)
In short: as §1

ZFP SBS#1500 = ZFP SBS#1500 (synthetic)
In short: as §1

ZFP SBS#1457 = ZFP SBS#1457 (synthetic)
Chain of ZFP SBS#1457 (synthetic) (chain, as listed by the source): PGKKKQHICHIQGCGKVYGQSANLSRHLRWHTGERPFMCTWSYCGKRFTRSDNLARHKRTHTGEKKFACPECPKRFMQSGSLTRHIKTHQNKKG
In short: as §1

ZFP SBS#1499 = target: T4, ZFP SBS#1499 (synthetic)
T4 chain: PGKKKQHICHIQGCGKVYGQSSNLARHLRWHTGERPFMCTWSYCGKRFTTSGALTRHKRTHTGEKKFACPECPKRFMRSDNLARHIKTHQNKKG
In short: as §1

ZFP SBS#1498 = target: T5, ZFP SBS#1498 (synthetic)
T5 chain: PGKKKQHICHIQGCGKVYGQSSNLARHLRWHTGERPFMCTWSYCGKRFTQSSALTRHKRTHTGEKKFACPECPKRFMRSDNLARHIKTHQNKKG
In short: as §1

ZFP SBS#552 = target: T6, ZFP SBS#552 (synthetic)
T6 chain: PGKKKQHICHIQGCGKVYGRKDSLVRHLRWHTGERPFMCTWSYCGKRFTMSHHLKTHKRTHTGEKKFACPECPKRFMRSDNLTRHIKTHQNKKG
In short: as §1

ZFP SBS#547 = target: T7, ZFP SBS#547 (synthetic)
T7 chain: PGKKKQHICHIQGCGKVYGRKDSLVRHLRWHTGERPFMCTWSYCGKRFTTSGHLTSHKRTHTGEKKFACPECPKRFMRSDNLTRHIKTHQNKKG
In short: as §1

ZFP SBS#546 = ZFP SBS#546 (synthetic)
Chain of ZFP SBS#546 (synthetic) (chain, as listed by the source): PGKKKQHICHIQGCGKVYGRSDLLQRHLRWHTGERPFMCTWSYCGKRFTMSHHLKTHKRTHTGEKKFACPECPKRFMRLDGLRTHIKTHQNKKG
In short: as §1

ZFP SBS#554 = target: T8, ZFP SBS#554 (synthetic)
T8 chain: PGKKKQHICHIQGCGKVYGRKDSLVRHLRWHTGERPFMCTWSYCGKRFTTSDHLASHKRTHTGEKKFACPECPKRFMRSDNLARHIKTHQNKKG
In short: as §1

ZFP SBS#544 = target: T9, ZFP SBS#544 (synthetic)
T9 chain: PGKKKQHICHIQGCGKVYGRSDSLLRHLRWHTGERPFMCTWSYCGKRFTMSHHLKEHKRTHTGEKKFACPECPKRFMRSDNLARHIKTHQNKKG
In short: as §1

ZFP SBS#549 = target: T10, ZFP SBS#549 (synthetic)
T10 chain: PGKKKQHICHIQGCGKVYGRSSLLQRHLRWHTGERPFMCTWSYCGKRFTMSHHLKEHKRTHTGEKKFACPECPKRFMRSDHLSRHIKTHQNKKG
In short: as §1

ZFP SBS#545 = target: T11, ZFP SBS#545 (synthetic)
T11 chain: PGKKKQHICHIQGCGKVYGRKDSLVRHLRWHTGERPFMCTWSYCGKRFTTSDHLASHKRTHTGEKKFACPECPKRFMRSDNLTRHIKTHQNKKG
In short: as §1

ZFP SBS#553 = target: T12, ZFP SBS#553 (synthetic)
T12 chain: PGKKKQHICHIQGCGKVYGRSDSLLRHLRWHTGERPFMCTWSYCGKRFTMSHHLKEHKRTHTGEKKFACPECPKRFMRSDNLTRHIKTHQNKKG
In short: as §1

ZFP SBS#551 = ZFP SBS#551 (synthetic)
In short: as §1

ZFP SBS#543 = ZFP SBS#543 (synthetic)
In short: as §1

ZFP SBS#548 = target: T13, ZFP SBS#548 (synthetic)
T13 chain: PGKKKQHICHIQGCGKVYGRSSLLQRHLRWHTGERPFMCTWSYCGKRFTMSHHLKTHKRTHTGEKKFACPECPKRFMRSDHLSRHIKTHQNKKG
In short: as §1

ZFP SBS#560 = target: T14, ZFP SBS#560 (synthetic)
T14 chain: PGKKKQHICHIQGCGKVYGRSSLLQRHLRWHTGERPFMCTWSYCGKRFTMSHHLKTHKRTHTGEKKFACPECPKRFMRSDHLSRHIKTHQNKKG
In short: as §1

ZFP SBS#550 = target: T15, ZFP SBS#550 (synthetic)
T15 chain: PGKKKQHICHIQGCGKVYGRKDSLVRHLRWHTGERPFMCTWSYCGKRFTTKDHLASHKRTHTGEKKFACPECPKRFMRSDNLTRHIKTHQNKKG
In short: as §1

ZFP SBS#1460 = target: T16, ZFP SBS#1460 (synthetic)
T16 chain: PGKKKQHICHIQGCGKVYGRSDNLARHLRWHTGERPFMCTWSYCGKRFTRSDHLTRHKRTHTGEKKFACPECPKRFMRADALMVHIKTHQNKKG
In short: as §1

ZFP SBS#1496 = ZFP SBS#1496 (synthetic)
Chain of ZFP SBS#1496 (synthetic) (chain, as listed by the source): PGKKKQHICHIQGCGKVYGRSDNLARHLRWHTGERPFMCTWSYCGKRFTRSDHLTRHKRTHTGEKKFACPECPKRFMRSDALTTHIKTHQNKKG
In short: as §1

B1: GGGTTTGAC (dsDNA)
DNA 1: GGGTTTGAC
DNA 2: GTCAAACCC
Binder B1 has a Kd (ZFP SBS#1494) of 0.255 nM and a Kd (ZFP SBS#1486) of 0.085 nM.

B2: GCAATGGGT (dsDNA)
DNA 1: GCAATGGGT
DNA 2: ACCCATTGC
Binder B2 has a Kd (ZFP SBS#1522) of 0.08 nM.

B3: AAGTGGTAG (dsDNA)
DNA 1: AAGTGGTAG
DNA 2: CTACCACTT
B3 was tested, and the Kd (ZFP SBS#1492) was 1.37 nM, the Kd (ZFP SBS#1493) was 15.1 nM and the Kd (ZFP SBS#1488) was 5.64 nM.

B4: GAGGCTCTT (dsDNA)
DNA 1: GAGGCTCTT
DNA 2: AAGAGCCTC
In the case of B4, the Kd (ZFP SBS#1497) is reported as 0.007 nM.

B5: GCAGAGGAA (dsDNA)
DNA 1: GCAGAGGAA
DNA 2: TTCCTCTGC
B5 gave a Kd (ZFP SBS#1500) of 0.003 nM and a Kd (ZFP SBS#1457) of 0.014 nM.

B6: GAGGTTGAT (dsDNA)
DNA 1: GAGGTTGAT
DNA 2: ATCAACCTC
In the case of B6, the Kd (ZFP SBS#1499) is reported as 0.02 nM and the Kd (ZFP SBS#1498) is reported as 0.101 nM.

B7: GAGTGTGTGA (dsDNA)
DNA 1: GAGTGTGTGA
DNA 2: TCACACACTC
In the case of B7, the Kd (ZFP SBS#552) is reported as 31 nM, the Kd (ZFP SBS#547) is reported as 500 nM and the Kd (ZFP SBS#546) is reported as 500 nM. It also gave a Kd (ZFP SBS#554) of 62.5 nM, a Kd (ZFP SBS#544) of 125 nM and a Kd (ZFP SBS#549) of 500 nM. It also gave a Kd (ZFP SBS#545) of 32 nM, a Kd (ZFP SBS#553) of 125 nM and a Kd (ZFP SBS#551) of 50 nM. It also gave a Kd (ZFP SBS#543) of 50 nM, a Kd (ZFP SBS#548) of 500 nM and a Kd (ZFP SBS#560) of 500 nM. The Kd (ZFP SBS#550) was 20 nM.

B8: TTGGGGGAG (dsDNA)
DNA 1: TTGGGGGAG
DNA 2: CTCCCCCAA
In the case of B8, the Kd (ZFP SBS#1460) is reported as 0.007 nM and the Kd (ZFP SBS#1496) is reported as 0.065 nM.
